The values below come from PMC3135403 (The Journal of Cell Biology, 2011).

Positions count from the first letter of the chain named. In names and notes the source's numbering stands.

The data set “SEC” deals with the molecule itself. Nature of the data set: SEC.
Data set [1] has as its target T1, GST-BakΔTM (human, UniProt Q16611 1-186).
T1 sequence (looked up): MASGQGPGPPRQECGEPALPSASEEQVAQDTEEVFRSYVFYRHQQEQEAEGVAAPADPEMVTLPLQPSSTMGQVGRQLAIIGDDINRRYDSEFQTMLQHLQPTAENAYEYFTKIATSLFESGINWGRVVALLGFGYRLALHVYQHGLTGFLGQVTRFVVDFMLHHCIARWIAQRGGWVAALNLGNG
Nature of the data set: SPR.

Data set [2] concerns the target T1, GST-BakΔTM. Nature of the data set: SPR. This is another data set of the same source. In general terms: Surface plasmon resonance follows binding to a sensor surface in real time, without labels.
The target in a further data set is T2, GST-BakΔTM R36A (human, UniProt Q16611 1-186, R36A).
T2 sequence (looked up): T1 sequence (looked up) with R36A
The data set is described as follows: SPR.

The target of another data set is T3, GST-Bak 93E/114E (human, UniProt Q16611 1-186, Bak 93E/114E (93E) | Bak 93E/114E (114E)).
T3 sequence (looked up): T1 sequence (looked up) with F93E, I114E
Nature of the data set: SPR.

Another data set deals with T4, GST-Bak 93E (human, UniProt Q16611 1-186, Bak 93E).
T4 sequence (looked up): T1 sequence (looked up) with F93E
The data set is described as follows: SPR.

The next data set deals with T5, GST-Bak 114E (human, UniProt Q16611 1-186, Bak 114E).
T5 sequence (looked up): T1 sequence (looked up) with I114E
Nature of the data set: SPR.

What is called Kd is the free concentration of one partner at which half of the binding sites on the other are occupied at equilibrium, for simple one-to-one binding. Low readings indicate tighter binding, high ones weaker binding.

B1: His6-Bak R36A (domain or fragment, human, UniProt Q16611 1-186, looked up)
chain: T1 sequence (looked up) with R36A
Regarding B1, the binding result in “SEC” is given as “binds”.
Turning to MPGKKARKNAQPSPARAPAELEVECATQLRRFGDKLNFRQ (domain or fragment, human, UniProt Q13794-1 1-40, looked up) [NoxaΔCT], the binding result with GST-BakΔTM [1] is “binds”.

B2: tBid (domain or fragment, human, UniProt P55957 61-195, looked up)
chain: GNRSSHSRLGRIEADSESQEDIIRNIARHLAQVGDSMDRSIPPGLVNGLALQLRNTSRSEEDRNRDLATALEQLLQAYPRDMEKEKTMLVLALLLAKKVASHTPSLLRDVFHTTVNFINQNLRTYVRSLARNGMD
Turning to B2, the binding result in the data set with GST-BakΔTM [1] is “binds”.

B3: Noxa (full-length, S peptide and His6 tagged) (natural protein, human, UniProt Q13794-1 1-54, looked up)
chain: MPGKKARKNAQPSPARAPAELEVECATQLRRFGDKLNFRQKLLNLISKLFCSGT
Turning to B3, binding with GST-BakΔTM [2] was put at a Kd of 24 nM. The binding result with GST-BakΔTM R36A, with GST-Bak 93E/114E, with GST-Bak 93E and in the data set with GST-Bak 114E was “binds” each time.
